Data on one molecule can be found in patent publication EP1891228B1 (Janssen Pharmaceutica NV, dated 2016).

The assay addresses HDAC1-flag (Homo sapiens (Human), UniProt Q13547 1-482). In words: cell-based or functional assay.

HDAC1-flag, sequence (Q13547 whole entry, form in doubt): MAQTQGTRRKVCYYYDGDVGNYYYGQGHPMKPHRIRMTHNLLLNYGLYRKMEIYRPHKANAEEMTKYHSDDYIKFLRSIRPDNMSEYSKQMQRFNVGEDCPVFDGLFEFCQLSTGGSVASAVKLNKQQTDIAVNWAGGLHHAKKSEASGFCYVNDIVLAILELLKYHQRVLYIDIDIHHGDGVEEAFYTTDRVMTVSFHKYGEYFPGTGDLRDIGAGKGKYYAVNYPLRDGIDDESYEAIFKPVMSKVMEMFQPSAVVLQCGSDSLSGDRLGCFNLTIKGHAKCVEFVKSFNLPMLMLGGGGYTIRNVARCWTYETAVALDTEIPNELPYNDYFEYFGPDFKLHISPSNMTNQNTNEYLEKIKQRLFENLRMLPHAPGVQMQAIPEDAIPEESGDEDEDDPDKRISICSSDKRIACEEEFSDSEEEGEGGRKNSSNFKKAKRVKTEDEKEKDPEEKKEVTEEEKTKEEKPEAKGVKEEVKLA

B1: V5-APPL (full length APPL) (other, not shown: small tags and cut ends)
chain: MPGIDKLPIEETLEDSPQTRSLLGVFEEDATAISNYMNQLYQAMHRIYDAQNELSAATHLTSKLLKEYEKQRFPLGGDDEVMSSTLQQFSKVIDELSSCHAVLSTQLADAMMFPITQFKERDLKEILTLKEVFQIASNDHDAAINRYSRLSKKRENDKVKYEVTEDVYTSRKKQHQTMMHYFCALNTLQYKKKIALLEPLLGYMQAQISFFKMGSENLNEQLEEFLANIGTSVQNVRREMDSDIETMQQTIEDLEVASDPLYVPDPDPTKFPVNRNLTRKAGYLNARNKTGLVSSTWDRQFYFTQGGNLMSQARGDVAGGLAMDIDNCSVMAVDCEDRRYCFQITSFDGKKSSILQAESKKDHEEWICTINNISKQIYLSENPEETAARVNQSALEAVTPSPSFQQRHESLRPAAGQSRPPTARTSSSGSLGSESTNLAALSLDSLVAPDTPIQFDIISPVCEDQPGQAKAFGQGGRRTNPFGESGGSTKSETEDSILHQLFIVRFLGSMEVKSDDHPDVVYETMRQILAARAIHNIFRMTESHLLVTCDCLKLIDPQTQVTRLTFPLPCVVLYATHQENKRLFGFVLRTSSGRSESNLSSVCYIFESNNEGEKICDSVGLAKQIALHAELDRRASEKQKEIERVKEKQQKELNKQKQIEKDLEEQSRLIAASSRPNQASSEGQFVVLSSSQSEESDLGEGGKKRESEA
Consider B1, for which the “HDAC1 activity: release of acetic acid from a [3H]acetyl-labeled Histone H4 peptide by immunoprecipitated HDAC1” value was about 4 fold.
